Results as given in publication PMC11205783, “HigA2 (Rv2021c) Is a Transcriptional Regulator with Multiple Regulatory Targets in Mycobacterium tuberculosis”.

T1: HigA2 (Mycobacterium tuberculosis H37Rv) (UniProt O53467)
T1 sequence: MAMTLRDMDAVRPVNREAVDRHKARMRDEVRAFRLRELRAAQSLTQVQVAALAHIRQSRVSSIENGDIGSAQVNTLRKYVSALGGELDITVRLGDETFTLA

T2: HigA2 (Mycobacterium tuberculosis H37Rv, UniProt O53467 1-101)
T2 sequence: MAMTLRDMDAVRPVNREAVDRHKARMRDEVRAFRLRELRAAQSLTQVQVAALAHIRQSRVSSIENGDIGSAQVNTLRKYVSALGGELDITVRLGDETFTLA


These molecules were tested against T1, HigA2 (Mycobacterium tuberculosis H37Rv) (assay: EMSA). Conditions: EMSA: 20 mM Tris-HCl, 150 mM NaCl, pH 8.0, 37 °C, 5 min, HigA2 1 uM (titrated in Fig 4); agarose or native PAGE. Pull-down: streptavidin beads, 4 °C, PBS ….

| Molecule | binding signal | binding |
| --- | --- | --- |
| higB2 40 bp | 5 µM |  |
| CGCTGCTCTTACCCGGAGGAATATCACCCTTGTGTGATATCGCGTATCGCGCTACTCTG (double strand) [seq6] |  | binds |
| GGCACAGGCTACTGTTTCAACGGCCCGGGTGCGCAGAGTCCGTCCTCGCCTGCCGGCATTTCCTCGACGGTAGCCCCGTCGCCCGCTGCTCTTACCCGGAGGAATATCACCCTTGTGTGATATCGCGTATCGCGCTACTCTGCGACTCTGTGGGGTGGACGGCGGATGTGGAGCGCATCTCCGCCTGGCTCAACGGCTTGGACCGAGAGACCTACGAATTGGTGTTCGCAGCTATCG (double strand) [seq4] |  | binds |

The molecules below were run against T2, HigA2 (assay: EMSA; essentially complete binding; 1 uM DNA; EMSA: 20 mM Tris-HCl, 150 mM NaCl, pH 8.0, 37 °C, 5 min, HigA2 1 uM (titrated in Fig 4); agarose or native PAGE. Pull-down: streptavidin beads, 4 °C, PBS washes). Conditions: protein: recombinant; tags: C-terminal 6xHis; chain copies: 2; blunt.

| Molecule | binding signal |
| --- | --- |
| Rv0258c-40bp (dsDNA) DNA 1: CATGGTGTCAGGATCACCCCGCTGTGATCAAAGATCAAGC DNA 2: GCTTGATCTTTGATCACAGCGGGGTGATCCTGACACCATG | ~5 µM |
| Rv2434c-40bp (dsDNA) DNA 1: GGTTCCCATGGGTATCACCTTCGTGATCGCCGGCAGCGTG DNA 2: CACGCTGCCGGCGATCACGAAGGTGATACCCATGGGAACC | ~20 µM |
| Rv1733c-40bp (dsDNA) DNA 1: GTGTTGCTGTCGATCACCCCCTCGTGATCGATCACGGTCG DNA 2: CGACCGTGATCGATCACGAGGGGGTGATCGACAGCAACAC | ~8 µM |
| Rv0086-40bp (dsDNA) DNA 1: CGCCATCGCCGATATCACCGGCGTGATGCGACGGTCGCGG DNA 2: CCGCGACCGTCGCATCACGCCGGTGATATCGGCGATGGCG | ~20 µM |
| Rv0010c-40bp (dsDNA) DNA 1: CAGTGGGGATGAATCACATGCGTGTGATTGAGTGACCAAA DNA 2: TTTGGTCACTCAATCACACGCATGTGATTCATCCCCACTG | ~8 µM |
| Rv2044c-40bp (dsDNA) DNA 1: TGTCGCTCACTACATCACCGGCGTGATCTATCCCGCCGGT DNA 2: ACCGGCGGGATAGATCACGCCGGTGATGTAGTGAGCGACA | ~5 µM |
| Rv3396c-40bp (dsDNA) DNA 1: TGTGGGGTGTGCATCACCTCCGGGTGATACTGCACCCCGG DNA 2: CCGGGGTGCAGTATCACCCGGAGGTGATGCACACCCCACA | ~8 µM |
